Columns and labels:
[1] = biological target: (NANP)6 (Plasmodium falciparum); assay: BLI, target on sensor
[2] = biological target: (NPNA)3 (Plasmodium falciparum); assay: BLI, target on sensor
[3] = biological target: (NVDP)3(NANP)2 (Plasmodium falciparum); assay: BLI, target on sensor
[4] = biological target: NANPNVDP (Plasmodium falciparum); assay: BLI, target on sensor
[5] = biological target: … (Plasmodium falciparum); assay: BLI, target on sensor
[6] = biological target: (NANP)6 (Plasmodium falciparum); assay: SPR, antibody on chip
[7] = biological target: (NPNA)3 (Plasmodium falciparum); assay: SPR, antibody on chip
[8] = biological target: (NVDP)3(NANP)2 (Plasmodium falciparum); assay: SPR, antibody on chip
[9] = biological target: … (Plasmodium falciparum); assay: SPR, antibody on chip

| Binder | Kd [1] | Kd [2] | Kd [3] | Kd [4] | Kd [5] | Kd [6] | Kd [7] | Kd [8] | Kd [9] |
| --- | --- | --- | --- | --- | --- | --- | --- | --- | --- |
| AB-007035 (antibody, V domains shown) VH: QMQLVESGGGVVQPGRSLRLSCTASGFTFSSYAMHWVRQSPGQGLQWVAVISYHSTNKYYEDSVRGRFTISRDNSKNTLYLQMNSLRAEDTAVYYCARDGYSSSFFDFWGQGTLVTVSS VL: DIQMTQSPSTLSASVGDRVAITCRASQSISRWLAWYQQQPGKAPKLLMSGASVLESGVPSRFSGSGSGTEFTLTISSLQPDDFATYYCQHYNSYFVTFGQGTKVEIK | 0.927 nM | 0.322 nM | 5.09 nM | 9.28 nM | 2.61 nM | 0.757 nM | 5.73 nM | 2690 nM | 9750 nM |
| AB-007042 (antibody, V domains shown) VH: QMQLVESGGGVVQPGRSLRLSCTASGFTFSTYAMHWVRQSPGQGLQWVAVISYHSTNKYYEDSVRGRFTISRDNSKNTLYLQMNSLRAEDTAVYYCARDGYSSSFFDFWGQGTLVTVSS VL: DIQMTQSPSTLSASVGDRVAITCRASQDISRWLAWYQQQPGKAPKLLMSGASVLESGVPSRFSGSGSGTEFTLTISSLQPDDFATYYCQHYNSYFVTFGQGTKVEIK | 0.0276 nM | 0.00314 nM | 3.9 nM | 8.56 nM | 2.99 nM | 0.998 nM | 7.04 nM | 2310 nM | 11700 nM |
| AB-007037 (antibody, V domains shown) VH: QMQLVESGGGVVQPGRSLRLSCTASGFTFSTYAMHWVRQSPGQGLQWVAVISYHSTNKYYEDSVKGRFTISRDNSKNTLYLQMNSLRAEDTAVYYCARDGYSSSFFDFWGQGTLVTVSS VL: DIQMTQSPSTLSASVGDRVAITCRASQSISRWLAWYQQQPGKAPKLLMSGASVLESGVPSRFSGSGSGTEFTLTISSLQPDDFATYYCQHYNSYFVTFGQGTKVEIK | 0.384 nM | 0.0035 nM | 4.44 nM | 8.41 nM | 2.47 nM | 1.73 nM | 7.14 nM | 2690 nM | 2240 nM |
| AB-007049 (antibody, V domains shown) VH: QMQLVESGGGVVQPGRSLRLSCTASGFTFSTYAMHWVRQSPGQGLQWVAVISNHETNKYYEDSVRGRFTISRDNSKNTLYLQMNSLRAEDTAVYYCARDGYSSSFFDFWGQGTLVTVSS VL: DIQMTQSPSTLSASVGDRVAITCRASQSISRWLAWYQQQPGKAPKLLMSGASVLESGVPSRFSGSGSGTEFTLTISSLQPDDFATYYCQHYNSYFVTFGQGTKVEIK | 0.576 nM | 0.326 nM | 13 nM | 21.2 nM | 12.3 nM | 0.092 nM | 25.8 nM | 7140 nM | 2950 nM |
| AB-007039 (antibody, V domains shown) VH: QMQLVESGGGVVQPGRSLRLSCTASGFTFSTYAMHWVRQSPGQGLQWVAVISYHSTNKYYEDSVRGRFTISRDNSKNTLYLQMNSLRAEDTAVYYCARDGYSSSFFDFWGQGTLVTVSS VL: DIQMTQSPSTLSASVGDRVAITCRASQSISRWLAWYQQQPGKAPKLLMSGASVLESGVPSRFSGSGSGTEFTLTISSLQPDDFATYYCQHYNSYSVTFGQGTKVEIK | 1.19 nM | 0.812 nM | 7.26 nM | 15.3 nM | 7.97 nM | 0.143 nM | 112 nM | 8250 nM | 14700 nM |
| AB-007051 (antibody, V domains shown) VH: QMQLVESGGGVVQPGRSLRLSCTASGFTFSTYAMHWVRQSPGQGLQWVAVISYHSRNKYYEDSVRGRFTISRDNSKNTLYLQMNSLRAEDTAVYYCARDGYSSSFFDFWGQGTLVTVSS VL: DIQMTQSPSTLSASVGDRVAITCRASQSISRWLAWYQQQPGKAPKLLMSGASVLESGVPSRFSGSGSGTEFTLTISSLQPDDFATYYCQHYNSYFVTFGQGTKVEIK | 1.08 nM | 0.591 nM | 4.89 nM | 6.57 nM | 3.23 nM | 0.507 nM | 5.19 nM | 2490 nM | 8840 nM |
| AB-007044 (antibody, V domains shown) VH: QMQLVESGGGVVQPGRSLRLSCTASGFTFSTYAMHWVRQSPGQGLQWVAVISYHSTNKYYEESVRGRFTISRDNSKNTLYLQMNSLRAEDTAVYYCARDGYSSSFFDFWGQGTLVTVSS VL: DIQMTQSPSTLSASVGDRVAITCRASQSISRWLAWYQQQPGKAPKLLMSGASVLESGVPSRFSGSGSGTEFTLTISSLQPDDFATYYCQHYNSYFVTFGQGTKVEIK | 0.85 nM | 0.239 nM | 5.99 nM | 8.61 nM | 3.47 nM | 0.139 nM | 7.96 nM | 2240 nM | 12700 nM |
| AB-007043 (antibody, V domains shown) VH: QMQLVESGGGVVQPGRSLRLSCTASGFTFSTYAMHWVRQSPGQGLQWVAVISYHSTNKYYEDSVRGRFTISRDNSKNTLYLQMNSLRAEDTAVYYCARDGYSSSFFDFWGQGTLVTVSS VL: DIQMTQSPSTLSASVGDRVAITCRASQSISRWLAWYQQQPGKAPKLLMSGASVLEDGVPSRFSGSGSGTEFTLTISSLQPDDFATYYCQHYNSYFVTFGQGTKVEIK | 0.293 nM | 0.00341 nM | 5.2 nM | 10.4 nM | 4.87 nM | 1.11 nM | 7.51 nM | 2590 nM | 16300 nM |
| AB-007052 (antibody, V domains shown) VH: QMQLVESGGGVVQPGRSLRLSCTASGFTFSTYAMHWVRQSPGQGLQWVAVISYHSNNKYYEDSVRGRFTISRDNSKNTLYLQMNSLRAEDTAVYYCARDGYSSSFFDFWGQGTLVTVSS VL: DIQMTQSPSTLSASVGDRVAITCRASQSISRWLAWYQQQPGKAPKLLMSGASVLESGVPSRFSGSGSGTEFTLTISSLQPDDFATYYCQHYNSYFVTFGQGTKVEIK | 0.392 nM | 0.0169 nM | 6.28 nM | 7.34 nM | 3.83 nM | 0.0442 nM | 6.31 nM | 2560 nM | 7140 nM |
| AB-007040 (antibody, V domains shown) VH: QMQLVESGGGVVQPGRSLRLSCTASGFTFSTYAMHWVRQSPGQGLQWVAVISYHSTNKYYEDSVRGRFTISRDNSKNTLYLQMNSLRAEDTAVYYCARDGYSSSFFDFWGQGTLVTVSS VL: DIQMTQSPSTLSASVGDRVAITCRASQSISRWLAWYQQQPGKAPKLLMSGASVLESGVPSRFSGSGSGTEFTLTISSLQPDDFATYYCQHYNSYYVTFGQGTKVEIK | 0.56 nM | 0.337 nM | 4.67 nM | 9.56 nM | 4.17 nM | 0.344 nM | 9.5 nM | 3110 nM | 3730 nM |
| AB-007041 (antibody, V domains shown) VH: QMQLVESGGGVVQPGRSLRLSCTASGFTFSDYAMHWVRQSPGQGLQWVAVISYHSTNKYYEDSVRGRFTISRDNSKNTLYLQMNSLRAEDTAVYYCARDGYSSSFFDFWGQGTLVTVSS VL: DIQMTQSPSTLSASVGDRVAITCRASQSISRWLAWYQQQPGKAPKLLMSGASVLESGVPSRFSGSGSGTEFTLTISSLQPDDFATYYCQHYNSYFVTFGQGTKVEIK | 0.47 nM | 0.145 nM | 6.65 nM | 12.1 nM | 5.57 nM | 0.246 nM | 5.64 nM | 3930 nM | 2520 nM |
| AB-007047 (antibody, V domains shown) VH: QMQLVESGGGVVQPGRSLRLSCTASGFTFSNYAMHWVRQSPGQGLQWVAVISYHSTNKYYEDSVRGRFTISRDNSKNTLYLQMNSLRAEDTAVYYCARDGYSSSFFDFWGQGTLVTVSS VL: DIQMTQSPSTLSASVGDRVAITCRASQSISRWLAWYQQQPGKAPKLLMSGASVLESGVPSRFSGSGSGTEFTLTISSLQPDDFATYYCQHYNSYFVTFGQGTKVEIK | 1.32 nM | 0.567 nM | 8.11 nM | 10 nM | 5.43 nM | 0.156 nM | 11.4 nM | 3680 nM | 9370 nM |
| AB-007046 (antibody, V domains shown) VH: QMQLVESGGGVVQPGRSLRLSCTASGFTFSTYAMHWVRQSPGQGLQWVAVISYHSTNKYYEDSVRGRFTISRDNSKNTLYLQMNSLRAEDTAVYYCARDGYSSSFFDFWGQGTLVTVSS VL: DIQMTQSPSTLSASVGDRVAITCRASQSISRWLAWYQQQPGKAPKLLMSGASVLESGVPSRFSGSGSGTEFTLTISSLQPDDFATYYCQHYYSYFVTFGQGTKVEIK | 2.58 nM | 1.57 nM | 11.6 nM | 11.1 nM | 9.15 nM | 1.27 nM | 10.3 nM | 2810 nM | 11600 nM |
| AB-007036 (antibody, V domains shown) VH: QMQLVESGGGVVQPGRSLRLSCTASGFTFSTYAMHWVRQSPGQGLQWVAVISYDSTNKYYEDSVRGRFTISRDNSKNTLYLQMNSLRAEDTAVYYCARDGYSSSFFDFWGQGTLVTVSS VL: DIQMTQSPSTLSASVGDRVAITCRASQSISRWLAWYQQQPGKAPKLLMSGASVLESGVPSRFSGSGSGTEFTLTISSLQPDDFATYYCQHYNSYFVTFGQGTKVEIK | 0.226 nM | 0.00382 nM | 17.4 nM | 29.6 nM | 16.9 nM | 0.0466 nM | 33.5 nM | 16700 nM | 17500 nM |
| AB-007038 (antibody, V domains shown) VH: QMQLVESGGGVVQPGRSLRLSCTASGFTFSTYAMHWVRQSPGQGLQWVAVISYHSTNKYYEDSVRGRFTISRDNSKNTLYLQMNSLRAEDTAVYYCARDGYSSSFFDYWGQGTLVTVSS VL: DIQMTQSPSTLSASVGDRVAITCRASQSISRWLAWYQQQPGKAPKLLMSGASVLESGVPSRFSGSGSGTEFTLTISSLQPDDFATYYCQHYNSYFVTFGQGTKVEIK | 1.34 nM | 0.544 nM | 5.82 nM | 10.9 nM | 3.81 nM | 0.0281 nM | 8.97 nM | 3060 nM | 13100 nM |

— patent US20220195023A1
